In article PMC3418312 one finds percent bound relative to AA23 (% relative to AA23) data, which are given here for one substance.

This assay concerns the target GST fused to the OCA2 N-terminal cytoplasmic domain, AA23 variant harboring the P99S mutation (human) (UniProt Q04671). Briefly: pull-down.
Sequence of UniProt Q04671 (Q04671 1-173 P99S): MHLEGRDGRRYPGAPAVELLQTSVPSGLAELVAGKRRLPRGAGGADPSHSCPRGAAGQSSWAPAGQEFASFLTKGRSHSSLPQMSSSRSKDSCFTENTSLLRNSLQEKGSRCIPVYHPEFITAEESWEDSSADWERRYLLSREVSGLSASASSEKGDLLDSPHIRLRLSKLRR

Turning to “AP-3 complex from MNT-1 human melanoma cell lysate (from UniProt O14617 1-1153; O00203 1-1094; Q92572 1-193)”, the percent bound relative to AA23 (% relative to AA23) was 30.1.
